# According to patent US20170247475A1 (Boehringer Ingelheim, published 2017):
# Like-named read-outs stand apart in the source and are kept apart here.
# T1: hAng2
# T1 chain: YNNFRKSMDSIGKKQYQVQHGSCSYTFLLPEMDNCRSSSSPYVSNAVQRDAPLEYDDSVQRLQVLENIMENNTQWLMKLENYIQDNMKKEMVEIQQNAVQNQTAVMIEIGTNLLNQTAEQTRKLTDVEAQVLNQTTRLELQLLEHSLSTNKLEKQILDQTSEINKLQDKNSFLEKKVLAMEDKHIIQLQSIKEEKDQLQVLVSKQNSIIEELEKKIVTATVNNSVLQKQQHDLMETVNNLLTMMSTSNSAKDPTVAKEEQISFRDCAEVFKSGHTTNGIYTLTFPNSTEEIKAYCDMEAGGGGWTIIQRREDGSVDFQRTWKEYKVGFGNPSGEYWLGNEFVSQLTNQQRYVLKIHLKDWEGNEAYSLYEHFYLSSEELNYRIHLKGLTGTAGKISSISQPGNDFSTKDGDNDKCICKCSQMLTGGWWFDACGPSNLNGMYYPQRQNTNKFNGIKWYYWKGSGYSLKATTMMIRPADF
# T2: mAng2
# T2 construct: may be the same protein as m22 (mouse Ang2-FLD); also called mouse Ang2
# T2 chain: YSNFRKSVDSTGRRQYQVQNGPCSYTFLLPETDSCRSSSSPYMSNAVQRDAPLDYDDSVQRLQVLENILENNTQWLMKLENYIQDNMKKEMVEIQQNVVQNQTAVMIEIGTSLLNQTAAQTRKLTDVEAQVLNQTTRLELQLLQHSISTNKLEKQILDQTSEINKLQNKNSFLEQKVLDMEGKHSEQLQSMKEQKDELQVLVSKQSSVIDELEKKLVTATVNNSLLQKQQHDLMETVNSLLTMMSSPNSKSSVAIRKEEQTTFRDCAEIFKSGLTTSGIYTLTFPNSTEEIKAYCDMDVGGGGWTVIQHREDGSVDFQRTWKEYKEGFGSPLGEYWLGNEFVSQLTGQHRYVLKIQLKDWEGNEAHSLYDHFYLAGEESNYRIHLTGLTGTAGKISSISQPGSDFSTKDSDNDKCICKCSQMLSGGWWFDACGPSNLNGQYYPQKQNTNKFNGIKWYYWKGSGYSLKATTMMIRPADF
# T3: hAng2
# T3 construct: also called human Ang2
# T3 chain: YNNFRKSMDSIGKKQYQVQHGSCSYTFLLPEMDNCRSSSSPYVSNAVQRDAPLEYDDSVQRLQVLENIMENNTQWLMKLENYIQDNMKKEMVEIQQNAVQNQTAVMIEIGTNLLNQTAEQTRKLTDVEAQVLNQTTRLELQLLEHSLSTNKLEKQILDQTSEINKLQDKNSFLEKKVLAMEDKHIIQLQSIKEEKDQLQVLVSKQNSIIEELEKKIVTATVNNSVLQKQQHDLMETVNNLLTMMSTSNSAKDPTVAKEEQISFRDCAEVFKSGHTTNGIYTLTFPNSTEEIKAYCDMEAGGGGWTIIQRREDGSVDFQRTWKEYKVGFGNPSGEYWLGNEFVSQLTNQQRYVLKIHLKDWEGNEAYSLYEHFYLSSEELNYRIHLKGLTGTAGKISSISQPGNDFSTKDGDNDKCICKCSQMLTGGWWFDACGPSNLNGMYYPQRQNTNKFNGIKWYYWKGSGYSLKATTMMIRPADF
# T4: mAng2
# T4 construct: also called mouse Ang2
# T4 chain: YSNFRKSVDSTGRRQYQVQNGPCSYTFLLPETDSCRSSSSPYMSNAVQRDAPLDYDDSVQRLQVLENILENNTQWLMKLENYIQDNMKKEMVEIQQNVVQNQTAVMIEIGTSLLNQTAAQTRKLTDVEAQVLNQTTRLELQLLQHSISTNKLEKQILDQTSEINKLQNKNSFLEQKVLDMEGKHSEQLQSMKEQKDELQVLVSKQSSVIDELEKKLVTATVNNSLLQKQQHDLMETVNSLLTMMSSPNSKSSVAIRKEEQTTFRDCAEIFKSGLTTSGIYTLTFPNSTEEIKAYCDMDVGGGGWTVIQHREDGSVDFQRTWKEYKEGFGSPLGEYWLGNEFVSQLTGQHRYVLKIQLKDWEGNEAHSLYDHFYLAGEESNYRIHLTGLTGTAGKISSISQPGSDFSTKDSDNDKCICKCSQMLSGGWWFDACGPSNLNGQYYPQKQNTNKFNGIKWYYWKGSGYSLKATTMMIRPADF
# T5: hAng2
# T5 construct: also called human Ang2
# T5 chain: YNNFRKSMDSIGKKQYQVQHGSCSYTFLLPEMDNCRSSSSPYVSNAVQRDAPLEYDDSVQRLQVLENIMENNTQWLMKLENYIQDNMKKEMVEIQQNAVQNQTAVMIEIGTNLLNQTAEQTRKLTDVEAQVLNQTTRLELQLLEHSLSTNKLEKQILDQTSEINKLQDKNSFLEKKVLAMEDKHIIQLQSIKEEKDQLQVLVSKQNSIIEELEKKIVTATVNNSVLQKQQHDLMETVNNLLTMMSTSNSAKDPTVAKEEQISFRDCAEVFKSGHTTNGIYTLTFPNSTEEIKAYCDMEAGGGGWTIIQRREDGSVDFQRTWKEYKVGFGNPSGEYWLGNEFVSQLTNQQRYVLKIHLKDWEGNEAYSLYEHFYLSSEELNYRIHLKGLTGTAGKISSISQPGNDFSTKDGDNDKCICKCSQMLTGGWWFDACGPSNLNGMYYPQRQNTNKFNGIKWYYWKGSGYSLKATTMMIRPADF
# T6: mAng2
# T6 construct: also called mouse Ang2
# T6 chain: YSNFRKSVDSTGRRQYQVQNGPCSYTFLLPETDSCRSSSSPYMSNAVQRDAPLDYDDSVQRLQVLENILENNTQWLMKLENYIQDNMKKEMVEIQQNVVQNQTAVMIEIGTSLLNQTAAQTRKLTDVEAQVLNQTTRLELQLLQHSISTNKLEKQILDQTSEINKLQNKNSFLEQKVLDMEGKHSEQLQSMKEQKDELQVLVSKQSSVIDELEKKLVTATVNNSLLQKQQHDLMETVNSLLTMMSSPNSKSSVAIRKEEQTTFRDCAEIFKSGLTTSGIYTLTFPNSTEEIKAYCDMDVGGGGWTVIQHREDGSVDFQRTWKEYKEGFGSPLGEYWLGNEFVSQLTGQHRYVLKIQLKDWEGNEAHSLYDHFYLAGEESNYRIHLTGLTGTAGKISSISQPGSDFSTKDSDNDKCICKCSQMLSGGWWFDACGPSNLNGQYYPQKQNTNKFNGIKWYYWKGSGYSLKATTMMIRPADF
# B1: 00938 (VHH)
# VHH: EVQLVESGGGLVQPGGSLRLSCAVSGITLDDYAIGWFRQAPGKEREGVSAIRSSGGSTYYADSVKGRFTISSDNSKNTVYLQMNSLRPEDTAVYYCAAVPAGRLRYGEQWYPIYEYDAWGQGTLVTVSS
# B2: 00956 (VHH)
# VHH: EVQLVESGGGLVQPGGSLRLSCAASGFTLDDYAIGWFRQAPGKEREGVSAIRSSGGSTYYADSVKGRFTISSDNSKNTVYLQMNSLRPEDTAVYYCAAVPAGRLRFGEQWYPLYEYDAWGQGTLVTVSS
# B3: ANGBII00004 (VHH)
# bivalent VHH: EVQLVESGGGLVQAGGSLRLSCAASGFTLDDYAIGWFRQAPGKEREGVSSIRDNDGSTYYADSVKGRFTISSDNDKNTVYLQMNSLKPEDTAVYYCAAVPAGRLRFGEQWYPLYEYDAWGQGTLVTVSSGGGGSGGGSEVQLVESGGGLVQAGGSLRLSCAASGFTLDDYAIGWFRQAPGKEREGVSSIRDNDGSTYYADSVKGRFTISSDNDKNTVYLQMNSLKPEDTAVYYCAAVPAGRLRFGEQWYPLYEYDAWGQGTLVTVSS
# notes: homodimeric anti-Ang2 VHH; also called 00027-9gs-00027
# B4: 00921 (VHH)
# VHH: EVQLVESGGGLVQPGGSLRLSCAASGFTFDDYALGWFRQAPGKEREGVSCIRCSGGSTYYADSVKGRFTISSDNSKNTVYLQMNSLRPEDTAVYYCAASIVPRSKLEPYEYDAWGQGTLVTVSS
# B5: 1D01 (VHH)
# VHH: EVQLVESGGGLVQAGGSLRLSCAASGFTFDDYALGWFRQAAGKEREGVSCIRCSDGSTYYADSVKGRFTISSDNAKNTVYLQMNSLKPEDTAVYYCAASIVPRSKLEPYEYDAWGQGTQVTVSS
# B6: ANGBII00003 (VHH)
# bivalent VHH: EVQLVESGGGLVQVGDSLRLSCAASGRTFSTYLMVGWFRQAPGKEREFAAGIWSSGDTAYADSVRGRFTISRDNAKNTVYLQMNSLKTEDTAVYYCAGSYDGNYYIPGFYKDWGQGTLVTVSSGGGGSGGGSEVQLVESGGGLVQVGDSLRLSCAASGRTFSTYLMVGWFRQAPGKEREFAAGIWSSGDTAYADSVRGRFTISRDNAKNTVYLQMNSLKTEDTAVYYCAGSYDGNYYIPGFYKDWGQGTLVTVSS
# notes: homodimeric anti-Ang2 VHH; also called 11B07-9gs-11B07
# How the values were obtained:
# hAng2 [1] = target: T1, hAng2; test: cell-based or functional assay
# hAng2 [2] = target: T1, hAng2; test: competition ELISA, blocking of hAng2 binding to hTie2-Fc
# mAng2 [3] = target: T2, mAng2; test: competition ELISA, blocking of mAng2 binding to mTie2-Fc
# cAng2 [4] = target: T7, cAng2 (cynomolgus monkey); test: competition ELISA, blocking of cAng2 binding to cTie2-Fc
# T7 construct: may be the same protein as m21 (cyno Ang2-FLD); also called cyno Ang2
# hAng2 [5] = target: T1, hAng2; test: cell-based or functional assay
# hAng2 [6] = target: T1, hAng2; test: competition ELISA, blocking of hAng2 binding to hTie2-Fc
# mAng2 [7] = target: T2, mAng2; test: competition ELISA, blocking of mAng2 binding to mTie2-Fc
# cAng2 [8] = target: T7, cAng2; test: competition ELISA, blocking of cAng2 binding to cTie2-Fc; remark: listed apart in the source
# hAng2 [9] = target: T3, hAng2; test: competition ELISA, blocking of hAng2 binding to hTie2
# mAng2 [10] = target: T4, mAng2; test: competition ELISA, blocking of mAng2 binding to mTie2
# cAng2 [11] = target: T8, cAng2 (cynomolgus monkey); test: competition ELISA, blocking of cAng2 binding to cTie2
# T8 construct: also called cyno Ang2
# hAng2 [12] = target: T1, hAng2; test: cell-based or functional assay
# hAng2 [13] = target: T1, hAng2; test: competition ELISA, blocking of hAng2 binding to hTie2-Fc
# mAng2 [14] = target: T2, mAng2; test: competition ELISA, blocking of mAng2 binding to mTie2-Fc
# cAng2 [15] = target: T7, cAng2; test: competition ELISA, blocking of cAng2 binding to cTie2-Fc; remark: listed apart in the source
# hAng2 [16] = target: T5, hAng2; test: competition ELISA hAng2/hTie2-Fc; blocked: hTie2-Fc
# mAng2 [17] = target: T6, mAng2; test: competition ELISA mAng2/mTie2-Fc; blocked: mTie2-Fc
# mAng2 [18] = target: T6, mAng2; test: as above
# mAng2 [19] = target: T6, mAng2; test: as above
# cAng2 [20] = target: T9, cAng2 (cynomolgus monkey); test: competition ELISA cAng2/cTie2-Fc; blocked: cTie2-Fc
# T9 construct: construct not given; also called cyno Ang2
# cAng2 [21] = target: T9, cAng2; test: as above; remark: listed apart in the source
# cAng2 [22] = target: T9, cAng2; test: as above; remark: listed apart in the source
# hAng2 [23] = target: T3, hAng2; test: competition ELISA, blocking of hAng2 binding to hTie2
# mAng2 [24] = target: T4, mAng2; test: competition ELISA, blocking of mAng2 binding to mTie2
# cAng2 [25] = target: T8, cAng2; test: competition ELISA, blocking of cAng2 binding to cTie2; remark: listed apart in the source
binder,measurement,setting,value
B1,"IC50 (read off the curve), hAng2 mediated HUVEC survival",hAng2 [1],~5 nM
same,IC50 (read off the curve),hAng2 [2],~40 pM
same,IC50 (read off the curve),mAng2 [3],~50 pM
same,IC50 (read off the curve),cAng2 [4],~90 pM
B2,"IC50 (read off the curve), hAng2 mediated HUVEC survival",hAng2 [5],~6 nM
same,IC50 (read off the curve),hAng2 [6],~1 nM
same,IC50 (read off the curve),mAng2 [7],~3 nM
same,IC50 (read off the curve),cAng2 [8],~2 nM
B3,IC50 (read off the curve),hAng2 [9],~10 pM
same,IC50 (read off the curve),mAng2 [10],~30 pM
same,IC50 (read off the curve),cAng2 [11],~40 pM
B4,"IC50 (read off the curve), hAng2 mediated HUVEC survival",hAng2 [12],~30 nM
same,IC50 (read off the curve),hAng2 [13],~20 nM
same,IC50 (read off the curve),mAng2 [14],~30 nM
same,IC50 (read off the curve),cAng2 [15],~50 nM
B5,IC50 (read off the curve),hAng2 [16],~8 nM
same,IC50 (read off the curve),mAng2 [17],~10 nM
same,IC50 (read off the curve),mAng2 [18],~10 nM
same,IC50 (read off the curve),mAng2 [19],~10 nM
same,IC50 (read off the curve),cAng2 [20],~10 nM
same,IC50 (read off the curve),cAng2 [21],~10 nM
same,IC50 (read off the curve),cAng2 [22],~10 nM
B6,IC50 (read off the curve),hAng2 [23],~30 pM
same,IC50 (read off the curve),mAng2 [24],~40 pM
same,IC50 (read off the curve),cAng2 [25],~30 pM
